Measured values reported in article PMC9482650, “Quantitative fragmentomics allow affinity mapping of interactomes” (Nature Communications, 2022).

T1: APBA1_1, Q02410
T1 sequence (Q02410 651-752, limits assumed, looked up): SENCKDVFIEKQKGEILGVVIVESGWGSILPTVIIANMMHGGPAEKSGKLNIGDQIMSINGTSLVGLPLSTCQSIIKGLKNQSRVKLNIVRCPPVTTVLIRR

T2: APBA2_1, Q99767
T2 sequence (Q99767 563-664, limits assumed, looked up): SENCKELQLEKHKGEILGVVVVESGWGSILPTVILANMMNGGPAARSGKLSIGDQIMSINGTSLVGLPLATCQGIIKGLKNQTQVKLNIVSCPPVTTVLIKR

T3: APBA2_2, Q99767
T3 sequence (Q99767 654-744, limits assumed, looked up): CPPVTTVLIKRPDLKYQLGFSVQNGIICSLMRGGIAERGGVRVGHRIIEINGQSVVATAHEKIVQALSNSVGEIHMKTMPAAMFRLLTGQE

T4: APBA3_1, O96018
T4 sequence (O96018 389-490, limits assumed, looked up): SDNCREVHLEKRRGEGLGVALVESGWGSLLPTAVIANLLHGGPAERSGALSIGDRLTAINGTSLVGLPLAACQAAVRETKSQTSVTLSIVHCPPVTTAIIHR

T5: DFNB31_3, Q9P202
T5 sequence (Q9P202 811-907, limits assumed, looked up): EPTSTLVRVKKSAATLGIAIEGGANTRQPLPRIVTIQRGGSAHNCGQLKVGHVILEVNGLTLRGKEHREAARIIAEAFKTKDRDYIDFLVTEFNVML

T6: DVL3, Q92997
T6 sequence (Q92997 244-331, limits assumed, looked up): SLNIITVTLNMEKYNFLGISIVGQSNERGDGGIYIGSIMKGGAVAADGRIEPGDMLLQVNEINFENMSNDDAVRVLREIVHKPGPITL

T7: HTRA4, P83105
T7 sequence (P83105 378-476, limits assumed, looked up): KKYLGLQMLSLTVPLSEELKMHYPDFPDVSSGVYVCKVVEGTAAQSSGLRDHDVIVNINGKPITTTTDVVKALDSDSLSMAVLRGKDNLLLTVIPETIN

T8: LIN7B, Q9HAP6
T8 sequence (Q9HAP6 88-185, limits assumed, looked up): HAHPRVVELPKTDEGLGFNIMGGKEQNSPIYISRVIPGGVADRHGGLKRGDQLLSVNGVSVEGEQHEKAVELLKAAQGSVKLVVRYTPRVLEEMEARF

T9: MPDZ_10, O75970
T9 sequence (O75970 1624-1722, limits assumed, looked up): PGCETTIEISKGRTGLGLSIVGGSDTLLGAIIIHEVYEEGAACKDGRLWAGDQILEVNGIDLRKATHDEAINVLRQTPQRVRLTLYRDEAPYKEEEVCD

T10: NHERF3_4, Q5T2W1
T10 sequence (Q5T2W1 373-468, limits assumed, looked up): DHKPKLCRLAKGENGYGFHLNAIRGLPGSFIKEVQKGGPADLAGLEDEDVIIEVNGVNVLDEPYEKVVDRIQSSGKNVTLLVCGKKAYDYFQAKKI

T11: PDZD7_3, Q9H5P4
T11 sequence (Q9H5P4 857-944, limits assumed, looked up): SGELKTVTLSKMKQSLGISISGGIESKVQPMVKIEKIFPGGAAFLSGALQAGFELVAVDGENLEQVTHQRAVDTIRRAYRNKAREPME

T12: SIPA1L2, Q9P2F8
T12 sequence (Q9P2F8 945-1036, limits assumed, looked up): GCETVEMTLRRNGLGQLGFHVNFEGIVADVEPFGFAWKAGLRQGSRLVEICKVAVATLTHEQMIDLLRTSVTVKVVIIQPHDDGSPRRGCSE

T13: SYNJ2BP, P57105
T13 sequence (P57105 8-110, limits assumed, looked up): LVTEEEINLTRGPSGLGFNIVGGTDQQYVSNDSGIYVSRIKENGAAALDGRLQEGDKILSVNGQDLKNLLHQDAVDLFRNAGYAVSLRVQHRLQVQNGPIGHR


Experiments:
Assay in all cases: holdup assay
Design in all cases: key: below the threshold = too weak to quantify, mostly under pKd 3.1 to 4
Conditions in all cases: plain residues with an end cap or a label only (N-terminal biotin on a linker: ado-ado)
[1] = biological target: T1, APBA1_1, Q02410
[2] = biological target: T2, APBA2_1, Q99767
[3] = biological target: T3, APBA2_2, Q99767
[4] = biological target: T4, APBA3_1, O96018
[5] = biological target: T5, DFNB31_3, Q9P202
[6] = biological target: T6, DVL3, Q92997
[7] = biological target: FRMPD4, Q14CM0
Chain of FRMPD4, Q14CM0 (Q14CM0 67-160): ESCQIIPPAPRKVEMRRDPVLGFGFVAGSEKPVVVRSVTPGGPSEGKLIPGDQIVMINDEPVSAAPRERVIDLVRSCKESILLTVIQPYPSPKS

[8] = biological target: GRASP, Q7Z6J2
Chain of GRASP, Q7Z6J2 (Q7Z6J2 96-193): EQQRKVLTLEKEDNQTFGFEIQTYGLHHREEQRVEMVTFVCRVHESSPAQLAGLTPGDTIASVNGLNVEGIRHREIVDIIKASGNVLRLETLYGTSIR

[9] = biological target: GRIP2_3, Q9C0E4
Chain of GRIP2_3, Q9C0E4 (Q9C0E4 238-339): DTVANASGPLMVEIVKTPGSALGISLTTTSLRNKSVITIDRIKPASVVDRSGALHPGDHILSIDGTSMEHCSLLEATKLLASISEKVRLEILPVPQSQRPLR

[10] = biological target: GRIP2_7, Q9C0E4
Chain of GRIP2_7, Q9C0E4 (Q9C0E4 934-1023): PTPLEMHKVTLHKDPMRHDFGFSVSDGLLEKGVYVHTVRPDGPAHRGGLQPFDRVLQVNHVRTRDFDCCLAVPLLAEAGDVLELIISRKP

[11] = biological target: T7, HTRA4, P83105
[12] = biological target: Inadl_2, Q8NI35
Chain of Inadl_2, Q8NI35 (Q8NI35 238-335): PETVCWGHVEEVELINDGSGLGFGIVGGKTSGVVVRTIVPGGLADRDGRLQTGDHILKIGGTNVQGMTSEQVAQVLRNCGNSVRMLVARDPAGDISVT

[13] = biological target: T8, LIN7B, Q9HAP6
[14] = biological target: MAGI2_4, Q86UL8
Chain of MAGI2_4, Q86UL8 (Q86UL8 772-865): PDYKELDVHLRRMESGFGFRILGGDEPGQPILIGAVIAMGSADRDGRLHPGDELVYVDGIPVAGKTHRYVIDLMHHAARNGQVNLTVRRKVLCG

[15] = biological target: MAGI3_2, Q5TCQ9
Chain of MAGI3_2, Q5TCQ9 (Q5TCQ9 398-503): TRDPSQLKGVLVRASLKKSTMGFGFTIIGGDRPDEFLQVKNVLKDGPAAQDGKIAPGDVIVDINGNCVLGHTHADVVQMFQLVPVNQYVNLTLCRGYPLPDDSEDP

[16] = biological target: MAST2, Q6P0Q8
Chain of MAST2, Q6P0Q8 (Q6P0Q8 1099-1202): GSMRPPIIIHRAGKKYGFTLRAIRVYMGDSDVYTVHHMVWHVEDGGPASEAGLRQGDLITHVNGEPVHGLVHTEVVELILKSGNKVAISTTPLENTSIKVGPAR

[17] = biological target: T9, MPDZ_10, O75970
[18] = biological target: T10, NHERF3_4, Q5T2W1
[19] = biological target: PDLIM1, O00151
Chain of PDLIM1, O00151 (O00151 1-87): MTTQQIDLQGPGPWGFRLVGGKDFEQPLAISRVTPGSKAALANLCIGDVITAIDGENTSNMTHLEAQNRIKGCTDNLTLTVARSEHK

[20] = biological target: T11, PDZD7_3, Q9H5P4
[21] = biological target: T12, SIPA1L2, Q9P2F8
[22] = biological target: SNX27, Q96L92
[23] = biological target: T13, SYNJ2BP, P57105
[24] = biological target: TJP2_1, Q9UDY2
Chain of TJP2_1, Q9UDY2 (Q9UDY2 24-128): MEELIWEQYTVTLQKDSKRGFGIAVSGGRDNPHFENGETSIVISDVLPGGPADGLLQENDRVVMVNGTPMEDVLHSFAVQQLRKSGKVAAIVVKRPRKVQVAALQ

pKd [1]	pKd [2]	pKd [3]	pKd [4]	pKd [5]	pKd [6]	pKd [7]	pKd [8]	pKd [9]	pKd [10]	pKd [11]	pKd [12]	pKd [13]	pKd [14]	pKd [15]	pKd [16]	pKd [17]	pKd [18]	pKd [19]	pKd [20]	Binder	other results
below the threshold	below the threshold	below the threshold	below the threshold	4.09	below the threshold	below the threshold	4.32	below the threshold	below the threshold	below the threshold	below the threshold	3.7	below the threshold	below the threshold	4.15	3.49	4	below the threshold	4.7	SAAKVLTSMC [GHRHR, Q02643]	pKd [21]: below the threshold; pKd [22]: 5.16; pKd [23]: 3.59; pKd [24]: 3.6
below the threshold	below the threshold	below the threshold	below the threshold	below the threshold	below the threshold	3.8	below the threshold	below the threshold	4.34	below the threshold	below the threshold	below the threshold	below the threshold	below the threshold	4.56	below the threshold	below the threshold	below the threshold	below the threshold	QSPANIYYKV [EFNB1, P52799]	pKd [21]: below the threshold; pKd [22]: below the threshold; pKd [23]: below the threshold; pKd [24]: below the threshold
below the threshold	below the threshold	below the threshold	below the threshold	3.88	below the threshold	below the threshold	below the threshold	below the threshold	below the threshold	below the threshold	below the threshold	4.5	3.52	below the threshold	5.21	below the threshold	below the threshold	below the threshold	below the threshold	TASPAKETSF [SLC2A7, Q6PXP3]	pKd [21]: below the threshold; pKd [22]: 5.48; pKd [23]: below the threshold; pKd [24]: below the threshold
below the threshold	below the threshold	below the threshold	below the threshold	below the threshold	below the threshold	below the threshold	below the threshold	below the threshold	below the threshold	below the threshold	below the threshold	3.75	below the threshold	4.15	4.82	below the threshold	below the threshold	below the threshold	below the threshold	TLPRKRMSSI [GPRC6A, Q5T6X5]	pKd [21]: below the threshold; pKd [22]: below the threshold; pKd [23]: below the threshold; pKd [24]: below the threshold
below the threshold	below the threshold	below the threshold	below the threshold	4.2	below the threshold	below the threshold	4.17	below the threshold	below the threshold	3.61	below the threshold	4.35	below the threshold	4.22	5.62	below the threshold	below the threshold	below the threshold	5.16	QSARLWETSI [ADAM22, Q9P0K1]	pKd [21]: below the threshold; pKd [22]: 5.41; pKd [23]: 5.2; pKd [24]: below the threshold
below the threshold	below the threshold	below the threshold	below the threshold	below the threshold	below the threshold	below the threshold	below the threshold	below the threshold	below the threshold	3.91	below the threshold	below the threshold	3.54	4.45	4.58	below the threshold	below the threshold	below the threshold	3.78	MLSKQSESAI [FLVCR1, Q9Y5Y0]	pKd [21]: below the threshold; pKd [22]: 4.4; pKd [23]: 4.52; pKd [24]: below the threshold
